In patent publication US7083949:

Key:
Test in all cases: cell-based or functional assay
[1] = molecular target: recombinant human IL-13 (E. coli) (human) (UniProt P35225)
human IL-13 (human) = human IL-13 (human) (UniProt P35225)
human IL-4 (human) = human IL-4 (human) (UniProt P05112)
human IL-6 (human) = human IL-6 (human) (UniProt P05231)
[2] = molecular target: recombinant human IL-1 (human)

Chain of human IL-4 (human) (P05112 25-153 limits assumed): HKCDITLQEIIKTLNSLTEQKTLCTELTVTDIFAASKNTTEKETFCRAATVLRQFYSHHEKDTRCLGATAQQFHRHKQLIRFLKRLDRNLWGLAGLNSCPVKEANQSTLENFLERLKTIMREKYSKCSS
Chain of human IL-13 (human) (P35225 35-146 limits assumed): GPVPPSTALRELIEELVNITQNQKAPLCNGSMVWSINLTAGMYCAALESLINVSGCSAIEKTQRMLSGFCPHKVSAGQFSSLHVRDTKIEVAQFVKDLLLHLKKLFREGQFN
Chain of human IL-6 (human) (P05231 30-212 limits assumed): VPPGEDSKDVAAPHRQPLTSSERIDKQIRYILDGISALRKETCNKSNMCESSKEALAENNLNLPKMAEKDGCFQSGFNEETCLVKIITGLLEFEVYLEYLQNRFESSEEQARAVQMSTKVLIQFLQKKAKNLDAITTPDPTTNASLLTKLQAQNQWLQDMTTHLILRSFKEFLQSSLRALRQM
Chain of recombinant human IL-13 (E. coli) (human) (P35225 35-146 limits assumed): as the sequence (P35225 35-146 limits assumed) above

Row | Substance | TF1 cell proliferation (MTS); IL-13 concentration at which growth is inhibited by 50% with 10 nM Trap (human IL-13 (human)) | TF1 cell proliferation (MTS); highest IL-13 concentration blocked by 10 nM Trap (human IL-13 (human)) | TF1 cell proliferation (MTS); IL-4 concentration at which growth is inhibited by 50% with 10 nM Trap (human IL-4 (human)) | TF1 cell proliferation (MTS); highest IL-4 concentration blocked by 10 nM Trap (human IL-4 (human)) | inhibition of IL-6-dependent proliferation of XG-1 cells (MTT) (fold molar excess over IL-6) (human IL-6 (human)) | other results
1 | IL-4/IL-13 Trap 1132 (Fc fusion) | – | – | – | – | – | IC50, TF1 cell proliferation with 15 pM IL-13 (E. coli; Preprotech), MTS [1]: 64 pM
2 | IL-4Rα.IL-13Rα1.Fc (Fc fusion) | 4 to 5 nM | 2 nM | 3 to 4 nM | 1 nM | – | –
3 | IL-13Rα1.IL-4Rα.Fc (Fc fusion) | 4 to 5 nM | 2 nM | 3 to 4 nM | 1 nM | – | –
4 | human IL-1 Trap (Fc fusion) | – | – | – | – | – | serum IL-6 in mice after injection of human IL-1 (in vivo) (fold molar excess) [2]: 150

Now from value to substance, other results behind:

Row | TF1 cell proliferation (MTS); IL-13 concentration at which growth is inhibited by 50% with 10 nM Trap (human IL-13 (human)) | TF1 cell proliferation (MTS); highest IL-13 concentration blocked by 10 nM Trap (human IL-13 (human)) | TF1 cell proliferation (MTS); IL-4 concentration at which growth is inhibited by 50% with 10 nM Trap (human IL-4 (human)) | TF1 cell proliferation (MTS); highest IL-4 concentration blocked by 10 nM Trap (human IL-4 (human)) | inhibition of IL-6-dependent proliferation of XG-1 cells (MTT) (fold molar excess over IL-6) (human IL-6 (human)) | Substance | other results
5 | – | – | – | – | > 1000 | gp130-Fc homodimer (Fc fusion) | –
6 | – | – | – | – | > 1000 | gp130-Fc-CNTFRα-Fc ligand Trap (Fc fusion) | –
